Patent publication US10385103B2, “Cell-permeable (ICP)-SOCS3 recombinant protein and uses thereof” (CELLIVERY THERAPEUTICS, INC., priority 2014, dated 2019)
Entries after “also recorded” stand apart in the source; their conditions may differ.

Legend:
PANC-1-Luc cells = assay: Tumor targeting in orthotopic pancreatic cancer xenograft model (Alexa680 imaging); format: in vivo, Balb/c nu/nu mice; settings: IV 40 mg/kg Alexa680-labeled protein; listed as iCP-SOCS3, 40 mg/kg
Protocol: Tumor-targeting of the anticancer agent iCP-SOCS3 (HM165S3B) recombinant proteins was investigated in an orthotopic xenograft model. The protocol was adapted from World J Gastroenterol. 2014 Jul. 28; 20(28): 9476-9485. […] After 7 weeks, the mice were IP injected with 100 μl of luciferin (Sigma-Aldrich, St. Louis, Mo., USA) and imaged by Xenogen IVIS-200 imaging system 15 minute later. As shown in FIG. 88 (A), pancreatic cancer model was well established.
The iCP-SOCS3 recombinant proteins were labeled and IV injected to the mice with 40 mg/kg according to a manual of Alexa680 kit (Thermo Fisher Scientific, San Jose, Calif., USA).

[1] = system: tumor tissues (Hep3B CDX, HepG2 CDX); assay: Biomarker expression in xenograft tumor tissues (RT-PCR, Western blotting, IHC); format: in vivo, Balb/c nu/nu mice
Protocol: Tumor tissues were finely minced using a homogenizer according to the manufacturer's protocol of Hybrid-R (geneall, Korea), and then mRNA was isolated therefrom. 1 ug of mRNA thus separated was used to synthesize cDNA using an Accupower RT Premix (Bioneer, Korea). PCR was performed using 2 ul of cDNA and the primers of Table 45. PCR was performed using an Accupower PCR Premix (Bioneer, Korea) for 30 cycles consisting of denaturing (95° C.), annealing (60° C.), and extending (72° C.) for 45 seconds each.
Immunohistochemistry (IHC) Tissue samples were fixed in 4% Paraformaldehyde (Duksan, South Korea) for 3 days, dehydrated, cleared with xylene and embedded in Paraplast. Sections (6 μm thick) of tumor were placed onto poly-L-lysine coated slides. To block endogenous peroxidase activity, sections were incubated for 15 min with 3% H2O2 in methanol. After washing three times with PBS, slides were incubated for 30 min with blocking solution (5% fetal bovine serum in PBS). Mouse anti-Bax antibody (sc-7480, Santa Cruz Biotechnology, SantaCruz, Calif., USA) and rabbit anti-VEGF (ab46154, Abcam, Cambridge, UK) were diluted 1:1000 (to protein concentration 0.1 μg/ml) in blocking solution, applied to sections, and incubated at 4° C. for 24 hrs. After washing three times with PBS, sections were incubated with biotinylated mouse and rabbit IgG (Vector Laboratories, Burlingame, Calif., USA) at a 1:1000 dilution for 1 hr at room temperature, then incubated with avidin-biotinylated peroxidase complex using a Vectorstain ABC Kit (Vector Laboratories, Burlingame, Calif., USA) for 30 min at room temperature. After the slides are reacted with oxidized 3, 3-diaminobenzidine as a chromogen, they were counterstained with Harris hematoxylin (Sigma-Aldrich, USA). Permanently mounted slides were observed and photographed using a microscope equipped with a digital imaging system (ECLIPSE Ti, Nikon, Japan).
mRNA levels were analyzed using the tumor tissues removed at 2 weeks (Hep3B CDX, day 35) or 3 weeks (HepG2 CDX, day 42) after termination of drug administration to analyze changes in expressions of major biomarker genes by iCP-SOCS3.
Further, tumors removed at 2 weeks (Hep3B CDX, day 35) or 3 weeks (HepG2 CDX, day 42) after termination of drug administration were used to perform Western blotting and IHC, and increase or decrease in the expressions of cancer activity regulating factors by iCP-SOCS3 was observed.

IL-6 = assay: LPS/IFN-γ-induced cytokine secretion in peritoneal macrophages (cytometric bead array), IL-6; format: cell-based, C3H/HeJ mice; settings: 10 μM protein; IFN-γ and LPS
Protocol: Peritoneal macrophages were obtained from C3H/HeJ mice (Doo-Yeol Biotech Co. Ltd. Korea) Peritoneal macrophages were incubated with 10 μM SOCS3 recombinant proteins (1:HS3, 2:HM165S3, 3:HM165S3A and 4:HM165S3B, respectively) for 1 hr at 37° C. and then stimulated them with LPS (Lipopolysaccharide)(500 ng/ml) and/or IFN-γ (100 U/ml) without removing iCP-SOCS3 proteins for 3, 6, or 9 hrs. The culture media were collected, and the extracellular levels of cytokine (TNF-α, IL-6) were measured by a cytometric bead array (BD Pharmingen, San Diego, Calif., USA) according to the manufacturer's instructions.

[2] = Bioavailability of FITC-labeled SOCS3 recombinant proteins after IV injection (PBMCs, splenocytes, hepatocytes, tissue sections); format: in vivo, ICR mice
Protocol: To investigate BA of the iCP-SOCS3 (HM165S3B) recombinant proteins, ICR mice (Doo-Yeol Biotech Co. Ltd., Seoul, Korea) were intravenous (IV) injected with 600 μg/head of 10 μM FITC (Fluorescein isothiocyanate, SIGMA, USA)-labeled SOCS3 recombinant proteins (HS3B, HM165S3B) and after 15 min, 30 min, 1H, 2H, 4H, 8H, 12H, 16H, 24H, 36H, 48H, mice of each group were sacrificed. From the mice, peripheral blood mononuclear cells (PBMCs), splenocytes, and hepatocytes were separated.
Further, the spleen was removed and washed with PBS, and then placed on a dry ice and embedded in an O.C.T. compound (Sakura). After cryosectioning at 20 μm, tissue distributions of fluorescence-labeled-SOCS3 proteins in different organs was analyzed by fluorescence microscopy (Carl Zeiss, Gottingen, Germany).
After anesthesia with ether, ophthalmectomy was performed and the blood was collected therefrom using a 1 ml syringe. The collected blood was immediately put in an EDTA tube and mixed well. The blood was centrifuged at 4,000 rpm and 4° C. for 5 minutes, and plasma was discarded and only buffy coat was collected in a new microtube. 0.5 ml of RBC lysis buffer (Sigma) was added thereto, followed by vortexing. The microtube was left at room temperature for 5 minutes, and then centrifuged at 4,000 rpm and 4° C. for 5 minutes. 0.3 ml of PBS was added to a pellet, followed by pipetting and flow cytometry (FlowJo cytometric analysis software, Guava, Millipore, Darmstadt, Germany).
Mice were laparotomized and the spleen or liver were removed. The spleen or liver thus removed was separated into single cells using a Cell Strainer (SPL, Korea). These cells were collected in a microtube, followed by centrifugation at 4,000 rpm and 4° C. for 5 minutes. 0.5 ml of RBC lysis buffer was added thereto, followed by vortexing. The microtube was left at room temperature for 5 minutes, and then centrifuged at 4,000 rpm and 4° C. for 5 minutes. 0.5 ml of PBS was added to a pellet, followed by pipetting and flow cytometry (FlowJo cytometric analysis software, Guava, Millipore, Darmstadt, Germany).

[3] = day 35 (Hep3B CDX) or day 42 (HepG2 CDX)
[4] = IV 600 μg/head FITC-labeled protein

B1: HM165S3B: His-tagged recombinant protein of aMTD165, human SOCS3 and solubilization domain B; prototype improved cell-permeable SOCS3 (protein)
chain: MGSSHHHHHHSSGLVPRGSHMALAVPVALAIVPVTHSKFPAAGMETSRPLDTSLRLKTFSSKSEYQLVVNAVRKLQESGFYWSAVTGGEANLLLSAEPAGTFLIRDSSDQRHFFTLSVKTQSGTKNLRIQCEGGSFSLQSDPRSTQPVPRFDCVLKLVHHYMETPPPGAPSFPSPPTEPSSEVPEQPSAQPLPGSPPRRAYYIYSGGEKIPLVLSRPLSSNVATLQHLCRKTVNGHLDSYEKVTQLPGPIREFLDQYDAPLGSMAEQSDKDVKYYTLEEIQKHKDSKSTWVILHHKVYDLTKFLEEHPGGEEVLGEQAGGDATENFEDVGHSTDARELSKTYIIGELHPDDRSKIAKPSETL
modifications: Amino acid sequence of HM165S3B
Q: What does the source list for B1?
A: biodistribution / tumor accumulation (PANC-1-Luc cells): delivered to every part of the body at 5 minutes; also recorded: a large amount of the proteins were accumulated only in tumor; expression of Bax in tumor tissues ([1]; Western blotting and IHC): increased; expression of Bcl-2 in tumor tissues ([1]; Western blotting and IHC): decreased; expression of VEGF in tumor tissues ([1]; Western blotting and IHC): remarkably decreased; expression of p21 in tumor tissues ([1]; Western blotting and IHC): increased; expression of GOLPH2 in tumor tissues [1, 3]: remarkably reduced; mRNA expressions of Bax, cyclinD1, cyclinE, PCNA, VEGF, FAK-related genes in tumor tissues [1, 3]: significantly regulated; effect on IL-6 secretion (IL-6): showed the greatest inhibitory effect on cytokine secretion; time maintained in tissues, depending on the tissues ([2]; IV): 8 to 16 h; time of delivery from blood to various tissues ([2]; IV): ≤ 2 h; distribution in pancreas tissue maintained up to [2, 4]: up to 8 hours; permeability in hepatocytes maintained up to [2, 4]: up to 16 hours; permeability in splenocytes maintained up to [2, 4]: up to 16 hours; time of maximum permeability in PBMCs [2, 4]: 30 min; time of maximum permeability in hepatocytes [2, 4]: 15 min; time of maximum permeability in splenocytes [2, 4]: 2 h; time of very high distribution in pancreas tissue [2, 4]: 2 h
